Laboratory results reported in publication PMC7567106, “Generalized enzymatic mechanism of catalysis by tetrameric L-asparaginases from mesophilic bacteria” (Scientific Reports, 2020).

Columns and labels:
[1] = molecular target: T1, EcAII (type II L-asparaginase from E. coli) (Escherichia coli, UniProt P00805); test: Q-TOF LC/MS of substrate, product and hydroxamate (data not shown); format: biochemical; conditions: 25 mM HEPES pH 7.7; 8 mM substrate, 27.8 nM enzyme, 0.4 M NH2OH
T1 construct: gene ansB; periplasmic enzyme, homotetramer; preparation not described here
T1 sequence (P00805 23-348): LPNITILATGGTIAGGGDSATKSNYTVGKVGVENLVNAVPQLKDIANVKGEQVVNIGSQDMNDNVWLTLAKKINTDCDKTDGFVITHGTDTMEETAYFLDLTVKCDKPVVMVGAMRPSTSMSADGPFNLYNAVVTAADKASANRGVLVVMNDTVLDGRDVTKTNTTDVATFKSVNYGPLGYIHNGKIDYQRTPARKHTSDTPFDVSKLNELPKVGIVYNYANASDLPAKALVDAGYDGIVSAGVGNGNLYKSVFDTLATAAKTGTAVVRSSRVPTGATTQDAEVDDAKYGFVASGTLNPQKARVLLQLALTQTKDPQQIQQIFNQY

[2] = molecular target: L-glutaminase-asparaginase from Pseudomonas 7A, K173M variant (Pseudomonas 7A) (UniProt Q88K39); test: crystal structure; co-crystallised with small ligands, hanging drop; protein 12.5-13.5 mg/ml in 50 mM HEPES pH 7.0, 200 mM NaCl; four protomers in the asymmetric unit as two intimate dimers (A,B) and (C,D)
[3] = molecular target: L-glutaminase-asparaginase from Pseudomonas 7A, wild type (Pseudomonas 7A) (UniProt Q88K39); test: as above

## NC(=O)C[C@H](N)C(=O)O [L-Asn]
[1]
  Q-TOF LC/MS of substrate, product and hydroxamate (data not shown): EcAII(wt) with L-Asn were monitored (not shown)

## L-glutaminase-asparaginase from Pseudomonas 7A, K173M variant (from UniProt Q88K39 26-362) (enzyme)
[2]
  stoichiometry N: 4

## L-glutaminase-asparaginase from Pseudomonas 7A, wild type (from UniProt Q88K39 26-362) (enzyme)
[3]
  stoichiometry N: 4
